Assay results as given in the Immune Epitope Database (IEDB).
pKd: −log10 of the molar value.

How the values were obtained:
Assay in all cases: IEDB peptide-MHC binding, purified MHC/competitive/radioactivity; filed as Kd, often an IC50 or EC50 that approximates it; ≥ and ≤ were set here for values at or beyond the usual limits of such assays
HLA-A*31:01 = biological target: HLA-A*31:01
HLA-A*68:01 = biological target: HLA-A*68:01
HLA-A*11:01 = biological target: HLA-A*11:01
HLA-A*33:01 = biological target: HLA-A*33:01
HLA-A*03:01 = biological target: HLA-A*03:01
[1] = source organism: Vaccinia virus WR
[2] = source organism: Dengue virus 1 Brazil/97-11/1997
[3] = source organism: Dengue virus 3 Martinique/1243/1999
[4] = source organism: SARS coronavirus Tor2
[5] = source organism: Dengue virus 2 Jamaica/1409/1983
[6] = source organism: Dengue virus 4 Philippines/H241/1956
[7] = source organism: Lymphocytic choriomeningitis virus (strain Armstrong)
[8] = source organism: Lassa virus Josiah
[9] = source organism: Dengue virus 1 Singapore/S275/1990
[10] = source organism: Vaccinia virus Copenhagen

Sequence | pKd (HLA-A*31:01; [1]) | pKd (HLA-A*68:01; [1]) | pKd (HLA-A*11:01; [1]) | pKd (HLA-A*33:01; [1]) | pKd (HLA-A*03:01; [1]) | further results
MTLDDLAIK | 6.39 | 7.40 | 7.43 | 5.63 | 6.03 | –
SQLAKRFSK | – | – | – | – | – | pKd (HLA-A*11:01; [2]): 7.30
AMCTNTFVLK | – | – | – | – | – | pKd (HLA-A*11:01; [3]): 7.68; pKd (HLA-A*03:01; [3]): 7.69
ATEGALNTPK | – | – | – | – | – | pKd (HLA-A*31:01; [4]): 5.55; pKd (HLA-A*68:01; [4]): 6.66; pKd (HLA-A*11:01; [4]): 8.33; pKd (HLA-A*33:01; [4]): ≤ 4.35; pKd (HLA-A*03:01; [4]): 7.09
AIYVFCISLK | – | – | – | – | – | pKd (HLA-A*31:01; [4]): 4.95; pKd (HLA-A*68:01; [4]): 5.06; pKd (HLA-A*11:01; [4]): 6.31; pKd (HLA-A*33:01; [4]): ≤ 4.31; pKd (HLA-A*03:01; [4]): 6.79
TAGPWHLGK | – | – | – | – | – | pKd (HLA-A*11:01; [5]): 7.18
SYVMCTGSFK | – | – | – | – | – | pKd (HLA-A*33:01; [2]): 7.75; pKd (HLA-A*03:01; [2]): 6.95
LFSKNILKY | 5.41 | 6.35 | 5.22 | 5.06 | 6.72 | –
GINNVQSLIK | 4.79 | 4.99 | 7.76 | ≤ 4.15 | 6.77 | –
MTIIGRRLQR | – | – | – | – | – | pKd (HLA-A*31:01; [6]): 7.82; pKd (HLA-A*68:01; [6]): 7.98; pKd (HLA-A*33:01; [6]): 7.49
CSRMLDTSEK | 5.81 | 5.11 | 5.79 | ≤ 4.15 | 6.00 | –
NMINKLYGY | ≤ 4.42 | ≤ 4.50 | 4.73 | 4.84 | 5.59 | –
SIMKNTTNTR | – | – | – | – | – | pKd (HLA-A*31:01; [5]): 6.17; pKd (HLA-A*68:01; [5]): 6.86
DHVSTLLTWH | – | – | – | – | – | pKd (HLA-A*31:01; [7]): 5.06; pKd (HLA-A*68:01; [7]): 4.91; pKd (HLA-A*11:01; [7]): ≤ 4.16; pKd (HLA-A*33:01; [7]): ≤ 4.15; pKd (HLA-A*03:01; [7]): ≤ 4.65
LVEYGTVVNK | – | 6.67 | – | – | – | –
KAMLYIIRR | 9.50 | 7.70 | 7.84 | 6.82 | 5.92 | –
VFKGFSDKVR | 6.70 | ≤ 4.57 | 5.58 | 6.03 | ≤ 4.15 | –
PTKRCRLLK | 5.27 | ≤ 4.64 | 5.98 | ≤ 4.63 | 5.96 | –
LTYSQLMTLK | – | – | – | – | – | pKd (HLA-A*31:01; [8]): 5.71; pKd (HLA-A*68:01; [8]): 8.30; pKd (HLA-A*11:01; [8]): 7.94; pKd (HLA-A*33:01; [8]): 4.97; pKd (HLA-A*03:01; [8]): 7.53
ISNMLNIMNR | – | – | – | – | – | pKd (HLA-A*31:01; [9]): ≤ 4.42; pKd (HLA-A*33:01; [9]): 6.80
TTTSTALGK | – | – | – | – | – | pKd (HLA-A*31:01; [4]): 5.97; pKd (HLA-A*68:01; [4]): 7.55; pKd (HLA-A*11:01; [4]): 7.50; pKd (HLA-A*33:01; [4]): ≤ 4.11; pKd (HLA-A*03:01; [4]): 6.14
ESNILDIDLR | – | – | – | – | – | pKd (HLA-A*68:01; [5]): 6.80

Sequence | pKd (HLA-A*31:01; [1]) | pKd (HLA-A*68:01; [1]) | pKd (HLA-A*11:01; [1]) | pKd (HLA-A*33:01; [1]) | pKd (HLA-A*03:01; [1]) | further results
DIALALEQY | 4.98 | 6.44 | ≤ 4.11 | ≤ 4.62 | ≤ 4.11 | –
NVTLFYCDER | 6.11 | 8.08 | 5.55 | 6.09 | 5.22 | –
MTATPPGSR | – | – | – | – | – | pKd (HLA-A*68:01; [5]): 7.74
TVGPWHLGK | – | – | – | – | – | pKd (HLA-A*11:01; [6]): 7.61; pKd (HLA-A*03:01; [6]): 7.77
ATDYIASGQR | 6.71 | 6.72 | 7.14 | 5.68 | 6.83 | –
ALNDMGKVRK | – | – | – | – | – | pKd (HLA-A*03:01; [5]): 7.44
GVTFQGKFKK | – | – | – | – | – | pKd (HLA-A*31:01; [4]): 5.55; pKd (HLA-A*68:01; [4]): 5.73; pKd (HLA-A*11:01; [4]): 6.27; pKd (HLA-A*33:01; [4]): ≤ 4.62; pKd (HLA-A*03:01; [4]): 6.12
WSYYCGGLK | – | – | – | – | – | pKd (HLA-A*03:01; [5]): 8.89
RLCLFDRYFK | – | – | – | – | – | pKd (HLA-A*31:01; [4]): 7.34; pKd (HLA-A*68:01; [4]): 6.06; pKd (HLA-A*11:01; [4]): 7.25; pKd (HLA-A*33:01; [4]): 5.71; pKd (HLA-A*03:01; [4]): 7.62
SVSIILANER | 6.18 | 9.36 | 7.11 | 5.79 | 5.60 | –
STQSVLCVKK | 6.74 | 8.45 | 9.80 | – | 6.93 | –
MTLVPVLEKK | 6.91 | 8.88 | 9.33 | 6.06 | 8.07 | –
EVYTQLCDHR | – | – | – | – | – | pKd (HLA-A*68:01; [3]): 7.84
SLLKETIQK | – | – | – | – | – | pKd (HLA-A*31:01; [10]): ≤ 4.70; pKd (HLA-A*68:01; [10]): 5.46; pKd (HLA-A*11:01; [10]): 7.77; pKd (HLA-A*33:01; [10]): 5.13; pKd (HLA-A*03:01; [10]): 7.40
EMVDELVTR | 7.55 | 8.60 | ≤ 4.39 | 7.03 | ≤ 4.11 | –
SKFWYLEHAK | – | – | – | – | – | pKd (HLA-A*31:01; [7]): 6.00; pKd (HLA-A*68:01; [7]): ≤ 4.51; pKd (HLA-A*11:01; [7]): 5.28; pKd (HLA-A*33:01; [7]): 6.06; pKd (HLA-A*03:01; [7]): 4.73
DFWRLYNSLK | 5.59 | 6.14 | 6.00 | 8.50 | 5.78 | –
GQGQNSADPK | – | – | – | – | – | pKd (HLA-A*68:01; [4]): ≤ 4.15; pKd (HLA-A*33:01; [4]): ≤ 4.15
FFTYLCGFIK | – | – | – | – | – | pKd (HLA-A*31:01; [4]): 6.21; pKd (HLA-A*68:01; [4]): 6.69; pKd (HLA-A*11:01; [4]): 6.02; pKd (HLA-A*33:01; [4]): 5.92; pKd (HLA-A*03:01; [4]): 6.36
GFTATICLK | – | – | – | – | – | pKd (HLA-A*31:01; [10]): 5.76; pKd (HLA-A*68:01; [10]): 7.09; pKd (HLA-A*11:01; [10]): 7.39; pKd (HLA-A*33:01; [10]): 6.33; pKd (HLA-A*03:01; [10]): 5.72
LLKILDNLR | 7.68 | 6.15 | 6.20 | 7.07 | 4.71 | –
